Laboratory results reported in patent US20200199214A1 (Hoffmann-La Roche, published 2020).

What was measured:
[1] = biological target: T1, Human VEGF121-His (human, UniProt P15692-9 27-147); experiment: SPR, VEGF121-His captured via anti-His antibody, Fab injected, single cycle kinetics, 1:1 Langmuir fit
T1 construct: not shown: His tag
T1 sequence (looked up): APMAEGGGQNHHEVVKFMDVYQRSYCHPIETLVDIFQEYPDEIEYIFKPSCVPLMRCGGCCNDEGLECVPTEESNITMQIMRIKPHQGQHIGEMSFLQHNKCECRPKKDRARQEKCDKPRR
Experimental: An anti-His capturing antibody (GE Healthcare 28995056) was immobilized to a Series S Sensor Chip C1 (GE Healthcare 29104990) using standard amine coupling chemistry resulting in a surface density of approximately 500 resonance units (RU). As running and dilution buffer, HBS-P+(10 mM HEPES, 150 mM NaCl pH 7.4, 0.05% Surfactant P20) was used. Human VEGF121-His was captured to the surface with resulting ligand densities of approximately 10 and 20 RU, respectively. A dilution series of the bispecific anti-VEGF/anti-IL-1beta Fab fragment (1.2-100 nM, 1:3 dilution) was successively injected for 90 s each, dissociation was monitored for 3600 s at a flow rate of 30 μl/min (single cycle kinetics). The surface was regenerated by injecting 10 mM Glycine pH 1.5 for 60 s. Bulk refractive index differences were corrected by subtracting blank injections and by subtracting the response obtained from the control flow cell without captured human VEGF121. Curve fitting was performed using the 1:1 Langmuir binding model within the Biacore evaluation software. To provide more robust fitting, the Multiple Rmax option was chosen for global fitting using both ligand densities.
Binding kinetics to VEGF and IL-1beta for the candidate antibodies were assessed as described in Example 3 using the indicated bispecific anti-VEGF/anti-IL-1beta Fab fragments (amino acid sequence as illustrated in Table 3). For comparison, antigen binding kinetics of prior art anti-VEGF/anti-IL-1beta antibody 0032, a full length IgG antibody, as disclosed in WO2016/075034 are depicted.

[2] = biological target: T2, human IL-1 beta (PeproTech 200-01B) (human, UniProt P01584 117-269); experiment: SPR competition: Fab preincubated with 50 nM IL-1beta, injected over immobilised IL-1bR1 (competitor); in presence of VEGF
T2 construct: As printed it covers only the N-terminal part of the precursor, so it was not used; also called huIL-1 beta; IL1β
Experimental: (§1) As running and dilution buffer, HBS-P+(10 mM HEPES, 150 mM NaCl pH 7.4, 0.05% Surfactant P20) was used.
(§2) For assessing VEGF-receptor binding inhibition, a final concentration of 200 nM of R07200394 or 400 nM antibody 0032 was preincubated with 50 nM VEGF121. For assessing IL-1beta-receptor binding inhibition, a final concentration of 200 nM of R07200394 or 200 nM antibody 0032 was with preincubated with 50 nM IL-1beta. Samples were diluted (1:2) in the corresponding 50 nM VEGF121 or IL-1beta solution.
(§3) The antibody/ligand mixtures were injected onto the VEGFR2 or IL-1R1 surface for 60 s at a flow rate of 5 μl/min. After a dissociation phase for 60 s, the VEGFR2 surface was regenerated by injecting 5 mM NaOH for 60 s, whereas the IL-1R1 surface was regenerated by injecting 10 mM Glycine pH 3.0 followed by 5 mM NaOH for 60 s each. Bulk refractive index differences were corrected by subtracting blank injections and by subtracting the response obtained from the blank control flow cell. For evaluation, the binding response 5 seconds after inject end was taken. The derived response in RU was transformed to a binding response relative to the initial signal corresponding to the ligand(s) without antibody. IC50 values were calculated using a 4 parameter logistic model (XLfit, ID Business Solutions Ltd.)

[3] = biological target: T3, human VEGF121 (human, UniProt P15692-9 27-147); experiment: SPR competition: Fab (from 200 nM, 1:2 dilutions) preincubated with 50 nM VEGF121, injected over immobilised hVEGFR2 (competitor); without IL-1beta
T3 construct: No tag is stated for these preparations; Kept apart from VEGF121-His; also called HuVEGF121
T3 sequence (looked up): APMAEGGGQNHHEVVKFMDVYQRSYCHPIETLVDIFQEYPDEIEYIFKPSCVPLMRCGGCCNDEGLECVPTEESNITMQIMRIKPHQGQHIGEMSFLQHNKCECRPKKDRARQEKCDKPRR
Experimental: as §1, §2, §3

[4] = biological target: T3, human VEGF121; experiment: competition ELISA: Fab preincubated with VEGF121, free VEGF121 bound to coated rhVEGFR-1-Fc detected; sheet title 'Competition ELISA VEGFR1-Fc, 8 pM VEGF121'
Experimental: 96-well-Plates (Maxisorp Nunc-Immoplates) were coated with 50 μL/well rhVEGFR-1-Fc (R&D #321-FL-050) at a final concentration of 1 μg/ml in 200 mM NaHC0₃, pH 9.4 for 1 hour at room temperature.
Meanwhile, antibody Fab fragments of different concentrations were preincubated with VEGF for form an antibody Fab-VEGF premix as follows: A dilution series of antibody Fab fragment was prepared by adding 280 μl of a solution of antibody Fab fragments (409.6 nM antibody in PBST-1% BSA) into the wells of the first column of a round bottom 96-well PS plate. The individual wells of columns 2-12 of the same plate were filled with 140 μl PBST-1% BSA. Subsequently, 1:2 dilutions were performed by transferring 140 μl of the antibody solution into the next column, thorough mixing and proceed with transferring 140 μl of this diluted antibody solution to the next column. This is repeated until column 11. Excess of 140 μl were discarded so that all wells comprise 140 μl. Column 12 served as the control (blank). […] 50 μl of the dilution series of the respective antibody Fab fragment were added to the VEGF121, or VEGF165, respectively; mixed thoroughly and incubated for 1.5 hours at room temperature.
The rhVEGFR-1-Fc coated plates were washed two times with PBST and blocked for 45 min with 200 μl of 2% MPBST. After washing off the MPBST solution twice with PBST, 50 μl of the antibody Fab-VEGF premix were added to the plate and incubated for 1.5 hours at room temperature. Subsequently, the plates were washed twice with PBST. Then, 50 μl of a solution comprising biotinylated anti-VEGF antibody (R&D, BAF293; 1:2000 dilution in PBST) and SA-HRP (KPL, 14-30-00; 1:2000 dilution in PBST) was added and incubated for 30 min at room temperature. After 6× washing with PBST, 50 μl of TMB substrate solution (two-component HRP substrate (KPL, 34021); used at room temperature) was added and incubated for 30 min at room temperature. 50 μl of 1N H₂SO₄ was added and absorbance was read at 450 nm.

B1: bispecific anti-VEGF/anti-IL-1beta Fab fragment RO7200394 (Fab, V domains shown)
VH: DEQLVESGGGLVKPGGSLRLSCAAEGMVFKWNDMSWVRQAPGKGLEWVGSISKKGDHKYLNTKFIGRFTISRDNEKDTLYLQMNSLRAEDTAVYYCAKDVGFFDIWGQGTLVTVSS
VL: AIYMHQEPSSLSASVGDRVTITCHGSYWLSSLVAWYQQKPGKAPKLLIYDAKYKHLGVPSRFSGSKEDQEFTLTISSLQPEDFATYYCQQYRYHPYTFGHGTKVEIKR
notes: same variable domains as 1HVL12.85; also called R07200394
B1 showed a Kd [1] of 0.006 nM, a koff [1] of 1.63e-05 s⁻¹ and a kon [1] of 2.85e+06 M⁻¹ s⁻¹. The t½ [1] was 11.8 h, the IC50 [2] was 24 nM and the IC50 [3] was 44 nM. For the same binder, the “IC50 (read off the curve)” value [4] was roughly 0.04 nM.
